According to paper PMC8770954 (2021):
Changes are numbered by the printed parent chain. No end group written: not given here.

B1: DH827 (human IgG1) (antibody, V domains shown)
VH: EVQLVESGGGVVQPGRSLRLSCAASGFTFSNCAMHWVRQAPGKGLEWVAVISYHGSNKYYADYVKGRFTISRDNSKSTVYLQMNSPRAEDTAVYYCAKEGGAPSGWALDYWGQGTLVTVSS
VL: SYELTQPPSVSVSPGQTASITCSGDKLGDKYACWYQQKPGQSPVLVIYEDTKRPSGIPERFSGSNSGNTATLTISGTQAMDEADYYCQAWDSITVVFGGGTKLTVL
B2: DH677.3 (human IgG1) (antibody, V domains shown)
VH: QVQLVQSGAEVQKPGASVKVSCKASGYTFASYDINWVRQATGQGLEWMGWMNPKTGNTGYAQKFQGRVTLTRNTSISTAYMELTSLRSEDTAVYYCATYRIIAAVGYRYFQYWGQGTLVTVSS
VL: DIQLTQSPSSLSASVGDSVTITCRASQGFGNYLAWYQQRPGKVPEVLIYAATTLQSGVPSRFSGSGSGTDFTLTISSLQPEDVATYYCQKYNSAPFTFGQGTRLEIK
B3: RhDH677.3 IgG1 (antibody, V domains shown)
VH: B2 VH with Q12K, V20L, A30T, T41P, L70M, N73D, I76T, T84S, T117A
VL: B2 VL with D1A, L4M, S18K, R39K, E45K, V46L, G57E
B4: Rh7B2 IgG1 (antibody, V domains shown)
VH: EVQLVESGGGLVQPGGSLRLSCAASGFTFTEYYMSWVRQAPGKGLEWVSYISKNGEYSYYADSVKGRFTISRDNAKNSLSLQMSSLRAEDTAVYYCTRADGLTYFSELLQYIFDLWGQGVLVTVSS
VL: DIVMTQSPDSLAVSLGERVTINCKSSQTLLYSSNNRHSIAWYQQKPGQAPKLLIYWASMRLSGVPNRFSGSGSGTDFTLTISGLQAEDVAVYYCHQYSSHPPTFGQGTKVEIK
B5: synthetic gp41 peptide (residues 596-606) with C-terminal amidation (peptide)
chain: WGCSGKLICTT-NH2
modifications: ends and bridges not checked
B6: RhDH827 IgG1 (antibody, V domains shown)
VH: EVQLVESGGGLVQPGGSLRLSCAASGFTFSNCAMHWVRQAPGKGLEWVAVISYHGSNKYYADYVKGRFTISRDNSKNMLYLQMNNLKLEDTAVYYCAREGGAPSGWALDYWGQGVLVTVSS
VL: SYELTQSPSVSVSPGQPASITCSGDKLGDKYACWYQQKPGQVPVLVIYEDTKRPSGIPERFSGSNSGNTATLTISGVEAGDEADYYCQAWDSITHVVFGGGTRLTVL
B7: RM JR4 IgG1 (antibody, V domains shown)
VH: EVQLVESGPGLVKPLETLSLTCAVPGGSIRRNYWSWIRQPPGKGLEWIGHSYGSGGSTNYNPSLESRVTLSVDTSKNLFSLKLTSVTAADTAVYYCARTVWYYTSGTHYFDHWGQGVLVTVSS
VL: QSVLTQPPSVSAAPGQKVTISCSGSSSNIGRSYVSWYQQVPGAAPKLLIYDTNKRPSGVSDRFSGSKSGSSASLAITGLQTGDEADYYCGAWDGSLNVHIFGSGTKLTVL

Tests used:
Test in all cases: SPR
[1] = target: T1, V2 peptide corresponding to the clade A/E 92TH023 gp120 V2 loop sequence (residues 167-184) (HIV-1 clade A/E 92TH023)
[2] = target: T1, V2 peptide corresponding to the clade …; remark: listed apart in the source
[3] = target: monomeric full length single chain (FLSC), a covalent dimer of gp120BaL and CD4 (HIV-1 BaL | , UniProt P01730)
[4] = target: B5
[5] = target: B5
[6] = target: 7B2

## B1
[1]
  koff: 0.0069 s⁻¹
[2]
  Kd: 3800 nM

## B2
[3]
  Kd: 0.29 nM
  koff: 4.05e-05 s⁻¹

## B3
[3]
  Kd: 2.54 nM
  koff: 0.000189 s⁻¹

## B4
[4]
  koff: 0.000534 s⁻¹
[5]
  Kd: 583 nM

## B5
[6]
  Kd: 634 nM
  koff: 0.000654 s⁻¹

## B6
[1]
  koff: 0.000486 s⁻¹
[2]
  Kd: 2730 nM

## B7
[3]
  Kd: 0.85 nM
  koff: 0.00013 s⁻¹
